Laboratory results reported in PMC10761869 (Nature Communications, 2024).

Experiments:
[1] = biological target: Sgt2^BFL (His6-Sgt2-LPATGG labelled with BODIPY-FL at the C-terminus); assay: FRET or BRET; 50–150 nM purified Sgt2^BFL-Bos1^CM complex in GET buffer chased with 2.5–30 µM CaM or with unlabeled Sgt2; recovery of donor fluorescence; intrinsic koff by extrapolation of the CaM concentration dependence to the Y-axis
[2] = biological target: Sgt2^BFL (His6-Sgt2-LPATGG labelled with BODIPY-FL at the C-terminus); assay: FRET or BRET; 50–150 nM purified Sgt2^BFL-TA^CM complex in GET buffer chased with 14–28 µM cpSRP43; recovery of donor fluorescence (excitation 360 nm, emission 460 nm); TA dissociation
[3] = biological target: Sgt2^BFL (His6-Sgt2-LPATGG labelled with BODIPY-FL at the C-terminus); assay: as above; remark: listed apart in the source
[4] = biological target: His6-Sgt2 (wildtype Sgt2) (UniProt Q12118); assay: cross-linking; Bos1^Bpa translated with 35S-methionine in S30 lysate in the presence of Sgt2 or Sgt2-C258; complexes purified via His6 on Sgt2, treated with 1 mM BMH; UV crosslinking, SDS-PAGE, autoradiography; time courses after adding 15–20 µM CaM (1 mM Ca(OAc)2) or 0.75 µM Get3 with 2 mM ATP, with or without 0.75 µM Get4/5
[5] = biological target: (Sgt2-C258)XL2, BMH-crosslinked Sgt2-C258 dimer (UniProt Q12118); assay: as above
[6] = biological target: His6-Sgt2-G258C, not crosslinked (UniProt Q12118); assay: cross-linking; intradimer crosslink of Sgt2 single cysteine variants with the thiol-specific homo-bifunctional crosslinker bismaleimidohexane (BMH)
[7] = biological target: His6-Sgt2-G258C, not crosslinked (UniProt Q12118); assay: cross-linking; purified Sgt2-C258-TA^Bpa complex incubated with 1 mM BMH at RT, quenched with 10 mM DTT; anti-His immunoblot
[8] = biological target: Ssa1^TMR, TMR-labeled Ssa1(D430C) (yeast) (UniProt P10591); assay: FRET or BRET; 20 nM Bos1^BFL with 500 nM Ssa1^TMR, with or without 500 nM Ydj1, 5 min; excitation 485 nm; chased with cpSRP43 or a five-fold excess of unlabeled Ssa1
[9] = biological target: T1, His6-Sgt2 (wildtype Sgt2), Q12118
T1 chain: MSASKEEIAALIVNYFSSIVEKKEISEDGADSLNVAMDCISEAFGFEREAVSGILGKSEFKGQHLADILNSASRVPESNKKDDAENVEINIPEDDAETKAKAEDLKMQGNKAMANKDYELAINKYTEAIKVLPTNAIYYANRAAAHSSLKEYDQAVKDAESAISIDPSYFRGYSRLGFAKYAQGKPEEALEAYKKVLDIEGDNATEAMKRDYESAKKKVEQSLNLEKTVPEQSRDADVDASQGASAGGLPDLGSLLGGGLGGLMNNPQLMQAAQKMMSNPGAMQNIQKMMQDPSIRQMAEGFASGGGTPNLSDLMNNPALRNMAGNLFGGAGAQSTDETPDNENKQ

[10] = biological target: T2, Ssa1 (tagless) (yeast, UniProt P10591 1-642); assay: pull-down; TA (0.3 µM) loaded on 3 µM Ssa1 with 2 mM ATP, with or without 3 µM Ydj1, then 0.6 µM His6-Sgt2; Talon resin, GET buffer (150 mM KOAc) with 5 mM imidazole wash; details: both partners purified
T2 construct: Ssa1, the major cytosolic Hsp70 in yeast; also called Hsp70; unlabeled Ssa1; source: recombinant His6-SUMO fusion, purified (Ni Sepharose, SUMO protease, MonoQ)

[11] = biological target: Bos1^Bpa, in vitro translated (Strep3-tagged, 35S-methionine); assay: pull-down + cross-linking; Bos1^Bpa translated in S30 extract in the presence of 2 µM His6-Sgt2 or Sgt2ΔN; pulldown on the strep3-tagged TA; UV crosslinking, autoradiography
[12] = biological target: T3, Ssa1 (yeast, UniProt P10591 1-642); assay: pull-down; 0.6 µM His6-Sgt2 added for 1 min to a preformed Ssa1-TA complex (0.3 µM TA, 3 µM Ssa1, 2 mM ATP, with or without 3 µM Ydj1) in GET buffer; captured on Talon resin at 4 °C, washed with GET buffer + 5 mM imidazole, eluted with 300 mM imidazole; silver stain and anti-Strep western blot; details: both partners purified
T3 construct: Ssa1, the major cytosolic Hsp70 of yeast; also called Hsp70; source: recombinant His6-SUMO fusion, purified (Ni Sepharose, SUMO protease, MonoQ)
T3 sequence (P10591 whole entry, the tested form may be a part): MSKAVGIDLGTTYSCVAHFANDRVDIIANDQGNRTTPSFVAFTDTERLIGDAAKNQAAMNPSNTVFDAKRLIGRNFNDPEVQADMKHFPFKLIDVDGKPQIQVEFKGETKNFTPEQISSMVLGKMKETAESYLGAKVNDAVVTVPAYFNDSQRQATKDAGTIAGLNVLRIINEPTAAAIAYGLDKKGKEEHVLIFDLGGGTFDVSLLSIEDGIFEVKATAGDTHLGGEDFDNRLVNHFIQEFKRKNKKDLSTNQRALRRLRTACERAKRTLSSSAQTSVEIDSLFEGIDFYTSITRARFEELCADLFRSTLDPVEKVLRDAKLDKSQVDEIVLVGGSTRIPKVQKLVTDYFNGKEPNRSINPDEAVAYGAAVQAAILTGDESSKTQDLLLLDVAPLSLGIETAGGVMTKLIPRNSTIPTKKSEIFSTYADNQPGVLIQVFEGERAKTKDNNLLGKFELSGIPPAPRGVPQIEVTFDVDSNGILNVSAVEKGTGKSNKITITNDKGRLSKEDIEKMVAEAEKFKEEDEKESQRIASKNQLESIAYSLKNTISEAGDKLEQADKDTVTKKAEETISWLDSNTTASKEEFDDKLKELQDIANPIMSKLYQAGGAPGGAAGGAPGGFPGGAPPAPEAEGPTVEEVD

T2 sequence (P10591 whole entry, the tested form may be a part): as above

Molecule: Bos1^CM (Strep-SUMO-Bos1 labelled with coumarin)
- apparent rate constant of Bos1 release from Sgt2 with 30 µM CaM [1]: 0.91 min⁻¹
- koff [1]: 0.0003 s⁻¹
- koff [2]: 0.000283 to 0.000317 s⁻¹
- koff [3]: 0.0003 s⁻¹

Molecule: Bos1^Bpa, in vitro translated (Strep3-tagged, 35S-methionine)
- apparent rate constant of TA loss from Sgt2 to CaM (20 µM CaM) [4]: 0.78 min⁻¹
- rate constant of loss of the TA crosslink to (Sgt2-C258)XL2 on transfer to Get3 with Get4/5 [5]: 3.5 min⁻¹

Molecule: His6-Sgt2-G258C, not crosslinked (from UniProt Q12118 1-346) (natural protein)
- BMH crosslinking efficiency (intradimer) [6]: 46%
- percent crosslinked by BMH (intradimer, in the complex with TA) [7]: 50%

Molecule: Bos1^BFL (BFL-labeled Bos1)
- koff, slow phase (~50% of the fluorescence change) [8]: 0.03 min⁻¹

Molecule: SEQTITSINKRVFKDKLVFWIALILLIIGIYYVLKWLR (modifications not checked) [Strep-SUMO-Bos1 (model TA substrate Bos1), unlabelled]
- equilibrium of Sgt2 closing (K closing; µs-ALEX smFRET of doubly labelled Sgt2^ATTO550/ATTO647N, mpH2MM) in the purified Sgt2-TA complex; apo-Sgt2 0.221 [9]: 0.597

B1: His6-Sgt2 (wildtype Sgt2) (natural protein, UniProt Q12118 1-346, looked up)
chain: MSASKEEIAALIVNYFSSIVEKKEISEDGADSLNVAMDCISEAFGFEREAVSGILGKSEFKGQHLADILNSASRVPESNKKDDAENVEINIPEDDAETKAKAEDLKMQGNKAMANKDYELAINKYTEAIKVLPTNAIYYANRAAAHSSLKEYDQAVKDAESAISIDPSYFRGYSRLGFAKYAQGKPEEALEAYKKVLDIEGDNATEAMKRDYESAKKKVEQSLNLEKTVPEQSRDADVDASQGASAGGLPDLGSLLGGGLGGLMNNPQLMQAAQKMMSNPGAMQNIQKMMQDPSIRQMAEGFASGGGTPNLSDLMNNPALRNMAGNLFGGAGAQSTDETPDNENKQ
notes: Sgt2, cochaperone of the GET pathway; The functional rows were measured with Sgt2 doubly labelled with ATTO550/ATTO647N at the C-terminus (His6-Sgt2-LPATGG ligated to GGGC-dye by sortase A); also called Sgt2-WT; unlabeled Sgt2; source: cells lysed with BugBuster
- binding result [10]: binds
- percent of Bos1^Bpa crosslinked [11]: > 43%

B2: His6-Sgt2ΔN (residues 96–346) (domain or fragment)
chain: AETKAKAEDLKMQGNKAMANKDYELAINKYTEAIKVLPTNAIYYANRAAAHSSLKEYDQAVKDAESAISIDPSYFRGYSRLGFAKYAQGKPEEALEAYKKVLDIEGDNATEAMKRDYESAKKKVEQSLNLEKTVPEQSRDADVDASQGASAGGLPDLGSLLGGGLGGLMNNPQLMQAAQKMMSNPGAMQNIQKMMQDPSIRQMAEGFASGGGTPNLSDLMNNPALRNMAGNLFGGAGAQSTDETPDNENKQ
- percent of Bos1^Bpa crosslinked [11]: 6%

B3: His6-tagged wildtype Sgt2 (natural protein, S. cerevisiae (printed as ScSgt2), UniProt Q12118 1-346, looked up)
chain: MSASKEEIAALIVNYFSSIVEKKEISEDGADSLNVAMDCISEAFGFEREAVSGILGKSEFKGQHLADILNSASRVPESNKKDDAENVEINIPEDDAETKAKAEDLKMQGNKAMANKDYELAINKYTEAIKVLPTNAIYYANRAAAHSSLKEYDQAVKDAESAISIDPSYFRGYSRLGFAKYAQGKPEEALEAYKKVLDIEGDNATEAMKRDYESAKKKVEQSLNLEKTVPEQSRDADVDASQGASAGGLPDLGSLLGGGLGGLMNNPQLMQAAQKMMSNPGAMQNIQKMMQDPSIRQMAEGFASGGGTPNLSDLMNNPALRNMAGNLFGGAGAQSTDETPDNENKQ
notes: Sgt2 (ScSgt2); also called His6-Sgt2; His-Sgt2-WT
- binding result [12]: binds
